For assay [1], the target named is IgG. Briefly: column chromatography, ligand coupled to agarose, IgG loaded at 1 mg/ml, before alkali treatment.
Assay [2] deals with IgG. In words: SPR, Biacore 4000; IgG amine-coupled to CM5 chip, C domain construct as analyte. For orientation: In SPR one partner is held on a chip, and binding of the other changes the refractive index at the surface.

As a reminder, the Kd is the concentration at which binding is half-saturated. (Native C-domain) 4 displayed an Initial IgG capability (dynamic binding capacity at 10% breakthrough) with IgG [1] of 165 mg/mL. In the assay with IgG [2], this substance gave a Kd of 7.18 nM.
